These results are taken from the nanobody polyreactivity screen of Harvey et al. (2022).

A short description of the data set: yeast display, Sf9 membrane polyspecificity reagent, FACS + sequencing; frameworks hold sequencing errors. The method, boiled down:
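Polyreactivity labels are assigned by the sorting gate from which each nanobody was recovered. The gates were low and high (top ~1%), set on anti-HA fluorescence for expression and streptavidin fluorescence for reagent binding. Before sorting, galactose-induced (36–48 hours) yeast display cells were stained for 1 hour at 4 °C with 10% biotinylated, detergent-solubilized Sf9 membrane reagent.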
With “QVQLVESGGGLVQAGGSLRLICAASGRTFGRYAMGWYRQAPGKERELVADIDYGGGSTYYADSEKGRFTISRDNAKNTVYLQMNSLKPEDTAVYYCNARRDIGWGYHMDYWGQGTQVTVSS”, the “polyreactivity (PSR sort gate)” value is “high polyreactivity”.

“QVQLVESGGGLVQAGGSLRLICAASGRTFGSNAMGWYTQAPGKERELVAAIRERGGSTYADSVKGRFTISRDNAKNTVYLQMNCLKQEDTAVYYCNAVYVRSSLYYTGWSTFYYWGQGTQVTVSS”: the “polyreactivity (PSR sort gate)” value is recorded as “low polyreactivity”.

On to “QVQLVESGGGLVQAGGSLRLICAASGRTFNPYAMGWYRQAPGKERELVAAISSGGNTNYADSVKGRFTISRDNAKNSVYLQMNSLKPEDTAVYYCATGLRWYHQLTGGYWGQGTQVTVSS”, for which the “polyreactivity (PSR sort gate)” value is “high polyreactivity”.

Take “QVQLVESGGGLVQAGGSLRLICAASGRTFRDYAMGWYRQAPGKEWELVAVISRRGSSTYYADSVKGRFTISRDNAKNTVYLQMNSLKPEDTAVYYCARVPTTWRYAYGYWGQGTQVTVSS”: the “polyreactivity (PSR sort gate)” value is given as “high polyreactivity”.

On to “QVQLVESGGGLVQAGGSLRLICAASGRTFRGYAMGWYRQAPGNERELVAAITKSGGSTYYADSVKGRFTISRDNEKNTVYFQMNSLKPEDTAVYYCAKLRSSRDYDYWGQGTQVTVSS”, for which the “polyreactivity (PSR sort gate)” value was “high polyreactivity”.

For “QVQLVESGGGLVQAGGSLRLICAASGRTFRLYAMGWYRQAPGKERELVAAITRGGRTNYADSVKGRFTISRDNAKNTVYLQMNSLKPEDTAVYYCAARYVERHTDYYYWGQGTQVTVSS”, the “polyreactivity (PSR sort gate)” value is on record as “low polyreactivity”.

Consider “QVQLVESGGGLVQAGGSLRLICAASGRTFRSNDMGWYRQAPGKERELVAANSLGTGTTYYADSVKGRFTISRDNAKNTVYLQMNSLKPEDTAVYYCHTDYRPIDTEYTSGYDYWGQGTQVTVSS”, for which the “polyreactivity (PSR sort gate)” value was “low polyreactivity”.

As for “QVQLVESGGGLVQAGGSLRLICAASGRTFRYYAMGWYRQAPGKERELVAAITTGSSTYYADSVKGRFTISRDNAKNTVYLQMNSLKPEDTAVYYCNVFQGTRYGYWGQGTQVTVSS”, the “polyreactivity (PSR sort gate)” value was “low polyreactivity”.

In the case of “QVQLVESGGGLVQAGGSLRLICAASGRTFSSYAMGWYRQAPGKERELVAALSRRGGSTYYADSVKGRFTISRDNAKNTVYLQMNSLNPEDTAVYYCAADVYKQYGYYYWGQGTQVTVSS”, the “polyreactivity (PSR sort gate)” value is given as “high polyreactivity”.

As for “QVQLVESGGGLVQAGGSLRLICAASGRTFSVYAMGWYRQAPGKERELVAAISWNGGNTYYADSVKGRFTISRDNAKNTVYLQMNSLKPEDTAVYYCAAERFLARRYYYWGQGTQVTVSS”, the “polyreactivity (PSR sort gate)” value is “low polyreactivity”.

With “QVQLVESGGGLVQAGGSLRLICAASGRTFVPYAMGWYRQAPGKERELVAAISQSGGRTYYTDSVKGRFTISRDNAKNTVYLQMNSLKPEDTAVYYCAKRYIYRYVWGGGDYWGQGTQVTVSS”, the “polyreactivity (PSR sort gate)” value is reported as “high polyreactivity”.

On to “QVQLVESGGGLVQAGGSLRLICAASGRTFYRYAMGWYRQAPGKDRELVATISRSGGSTYYADSVKGRFTISRDNAKNTVYLQINSLKPEDTAVYYCAADIPSYYWWRAYDYWGQGTQVTVSS”, for which the “polyreactivity (PSR sort gate)” value is on record as “low polyreactivity”.

In the case of “QVQLVESGGGLVQAGGSLRLICAASGRTFYRYAMGWYRQAPGKERELVAAISRSGTTYYADSVKGRFTISRDNAKNTVYLQMNSLKPEDTAVYYCAAKPAGRQRGGDYWGQGTQVTVSS”, the “polyreactivity (PSR sort gate)” value is reported as “high polyreactivity”.

“QVQLVESGGGLVQAGGSLRLICAASGRTLGGNAMGWYRQAPGKERELVAAITNSASTYADSVKGRFTISRDNAKNTVYLQMNSLKPEDTAVYYCNAPDPSDQHGDYWGQGTQVTVSS”: the “polyreactivity (PSR sort gate)” value was “low polyreactivity”.

For “QVQLVESGGGLVQAGGSLRLICAASGRTLRRYAMGWYRQAPGKERELVAAISRSGSSTYADSVKGRFTISRDNAKNTVYLQMHSLKPEDTAVYYCNAYQPRYGYWGQGTQVTVSS”, the “polyreactivity (PSR sort gate)” value is recorded as “high polyreactivity”.

As to “QVQLVESGGGLVQAGGSLRLICAASGRTYLWYTMGWYRQAPGKEREFVAAIWSGDSTYYADSVKGRFTISRDNAKNTVYLQMNSLKPEDTAVYYCAARRFRGSYYWGQGTQVTVSS”, the “polyreactivity (PSR sort gate)” value was “high polyreactivity”.

Take “QVQLVESGGGLVQAGGSLRLICAASGSIFDSYTMGWYRQAPGKERELVAAISKNGGSTYYADSVKGRFTISRDNAKNTVYFQMNSLKPEDTAFYYCARSRSGYRYDYWGQGTQVTVSS”: the “polyreactivity (PSR sort gate)” value was “high polyreactivity”.

With “QVQLVESGGGLVQAGGSLRLICAASGSIFGYNAMGWYRQAPGKERELVAVINASGASTYYADSVKGRFTISRDNAKNTVYLQMNSLKPEDTAVYYCAKDPFPFPGGDYWGHGTQVTVSS”, the “polyreactivity (PSR sort gate)” value is recorded as “low polyreactivity”.

On to “QVQLVESGGGLVQAGGSLRLICAASGSIFIHNAMGWYRPAPGKERELVAGITTGGSTYYADSVKGRFTISRDNAKNTVYLQMNSLKPEDTAVYYCAVKRPVALTRGNWVTEARDYWGQGTQVTVSS”, for which the “polyreactivity (PSR sort gate)” value is listed as “low polyreactivity”.

“QVQLVESGGGLVQAGGSLRLICAASGSIFITYDMGWYRQAPGKERELVATISTTGGTTYYADSVKGRFTISRDNAKNTVYLQMNSLKPEDTAVYYCATAGPPRGYYAPITLDDYWGQGTQVTVSS”: the “polyreactivity (PSR sort gate)” value is given as “low polyreactivity”.

For the sequence “QVQLVESGGGLVQAGGSLRLICAASGSIFPFNAMGWYRQAPGKERELVAAISSSGGSTSYADSVKGRFTISRDNAKNTVYLQMNSLKPEDTAVYYCNVRYRSAGSRYGYWGQGTQVTVSS”, the “polyreactivity (PSR sort gate)” value was “low polyreactivity”.

Regarding “QVQLVESGGGLVQAGGSLRLICAASGSIFRYYAMGWYRQAPGKERELVADINGSGGSTYYADSVKGRFTISRDNAKNTVYLQMNSLKPEDTAVYYCATAYGWRRKYYGYDYCGQGTQVTVSS”, the “polyreactivity (PSR sort gate)” value is recorded as “high polyreactivity”.

For “QVQLVESGGGLVQAGGSLRLICAASGSIFSLYAMGWYRQAPGKQREFVASISRSGGITYYADSVKGRFTISRDNEKNTVYLQMISLKPEDTAVYYCAAVGWVSYRRYDYWGQGTQVTVSS”, the “polyreactivity (PSR sort gate)” value was “high polyreactivity”.

Consider “QVQLVESGGGLVQAGGSLRLICAASGSIFTPNALGWYRPAPGKERELVAAISSSSDRTYYADSVKGRFTISRDNAKNSVFLLMNSLKPEDTAVYYCAAYAQKRYYWGQGTQVTVSS”, for which the “polyreactivity (PSR sort gate)” value was “high polyreactivity”.

For “QVQLVESGGGLVQAGGSLRLICAASGSIFVGNAMCWYSQATGKERELVATITSGGSTYYADSVKGRFTISRDNAMNTVYLQMNSLKPEDTSVYNCAADYEFSKFDYVYWGQGTQVTVSS”, the “polyreactivity (PSR sort gate)” value is “low polyreactivity”.

Regarding “QVQLVESGGGLVQAGGSLRLICAASGSIFVYNAMGSYRQAPAKERELVAAISQRGGSTYYADSVKGRFTISRDNAKNTVYLQMKSLKPEDTAVYYCAAGPGDSGDDYWGQGTQVTVSS”, the “polyreactivity (PSR sort gate)” value was “low polyreactivity”.

Take “QVQLVESGGGLVQAGGSLRLICAASGSIFYANAMGWYRQAPGKEREFVAANSSSGGGTSYADSVKGRFTISRDNAKNTVYLQMNSLKPEDTAVYYCAARVTYGGIPARQIYDYWGQGTQVTVSS”: the “polyreactivity (PSR sort gate)” value is “low polyreactivity”.

In the case of “QVQLVESGGGLVQAGGSLRLICAASGSIFYVNAMGWYRQEPGKERELVAGISRSGSSTYYADSVKGRFTISRDNAKNTVYLLMNSLKPEDTAVYYCNRVYQGRGWHDYWGQGTQVTVSS”, the “polyreactivity (PSR sort gate)” value is “high polyreactivity”.

Turning to “QVQLVESGGGLVQAGGSLRLICAASGSILYYYVMGWYRQAPGKERQLVAAITSGGSTYYADSVKGRFTISRDNAKNNVYLQMNSLKPEDTAVYYCAVRPRRQYSPSRWGTGCYWGQGTQVTVSS”, the “polyreactivity (PSR sort gate)” value is on record as “high polyreactivity”.

Take “QVQLVESGGGLVQAGGSLRLICAASGSTFDSYAMGWYRQAPGKERELVAAISRSGGRTYYADSVKGRFTISRDNAKNTVYLQMNSLKPEDTAGYYCAAPVKVGHSLSGGDYWGQGTQVTVSS”: the “polyreactivity (PSR sort gate)” value was “high polyreactivity”.

For “QVQLVESGGGLVQAGGSLRLICAASGSTFEHYAMGWYRPAPGKERELVAAITRRGGSTYYADSVKGRFTISRDNAKNTVYLQMNSLKPEDTAVYDCNTDLRYSYYLPGYDYWGQGPQVTVSS”, the “polyreactivity (PSR sort gate)” value was “high polyreactivity”.

Turning to “QVQLVESGGGLVQAGGSLRLICAASGSTFEQYAMGWYRQAPGKERELVAAINRGGSTYYADSVKGRFTISRDNAKNTVYLQMNSLKPEDTAVYYCAVYAFVRYRSRYGYWGQGTQVTVSS”, the “polyreactivity (PSR sort gate)” value is listed as “high polyreactivity”.

On to “QVQLVESGGGLVQAGGSLRLICAASGSTFGPYAMGWYRQAPGKERELVADITVSDGSTYYADSVKGRFTISRDNAKNTVYLQMNSLNPEDTAVYYCAAEIYYSFGYWGQGTQVTVSS”, for which the “polyreactivity (PSR sort gate)” value is on record as “low polyreactivity”.

Regarding “QVQLVESGGGLVQAGGSLRLICAASGSTFGPYSMGWYRQAPGKEMELVAVITTSGSTNYADSVKGRFTISRDNAKNTVYLQMNSLKPEDTAVYYCAARYRYYGTNRYYYWGQGTQVTVSS”, the “polyreactivity (PSR sort gate)” value was “high polyreactivity”.

As to “QVQLVESGGGLVQAGGSLRLICAASGSTFGVYAMGWYRQAPGKEREMVAAIRWSSGSTYYADSVKGRFTISRDNAKNTVYLQMNSLKPEDTAVYYCAKTRGIYNIRFGYWGQGTQVTVSS”, the “polyreactivity (PSR sort gate)” value is reported as “high polyreactivity”.

As to “QVQLVESGGGLVQAGGSLRLICAASGSTFIINAMGWYRQAPGKERELVARITQRGTSTFYADSVKGRFTISRDNAKNTVYLQMNSLKPDDTAVYYCAGRGSNSLGNKYDYWGQGTQVTVSS”, the “polyreactivity (PSR sort gate)” value was “high polyreactivity”.

As for “QVQLVESGGGLVQAGGSLRLICAASGSTFIINAMGWYRQAPGKERELVARITQRGTSTFYADSVKGRFTISRDNAKNTVYLQMNSLKPEDTAVYYCAARGSKSLGNKYDYWGQGTQVTVSS”, the “polyreactivity (PSR sort gate)” value is “high polyreactivity”.

“QVQLVESGGGLVQAGGSLRLICAASGSTFNNNAMGWFRQAPGKERELVAAISYTGGSTYYADSVKGRFTISRDNAKNNVYLQMNSLKPEDTAVYYCAADYPHLGGYRYDYWGQGTQVTVSS”: the “polyreactivity (PSR sort gate)” value is “high polyreactivity”.

For the sequence “QVQLVESGGGLVQAGGSLRLICAASGSTFPTYAMGWYRQAPGKERELVAAIDSSGGNTYYADSVKGRFTISRDNAKNTVYLQMNSLKPEDTEVYYCARESVTYFWYYTPEVDYWGQGTQVTVSS”, the “polyreactivity (PSR sort gate)” value is “low polyreactivity”.

Consider “QVQLVESGGGLVQAGGSLRLICAASGSTFQLYAMGWYRQAPGKERDLFAAISGIGDSTYYADSVKGRFTISRDNAKITVYLQMNSLKPEDTAVYYCAREFSDGLSGKFDYWGQRTQVTVSS”, for which the “polyreactivity (PSR sort gate)” value was “low polyreactivity”.

Take “QVQLVESGGGLVQAGGSLRLICAASGSTFRNYAMGWYRQAPGKDRELVAAISRGDGTYYADSVKWRFTISRDNAKNTVYLLMNSLKPEYSAVYYCAAAYRGRQNPMGFWGQGTQVTVSS”: the “polyreactivity (PSR sort gate)” value is reported as “high polyreactivity”.
